Measured values as given in the supplement of paper PMC9170038.

System: K4 kissing-loop RNA reporter
Assay: apparent KD of K4 kissing-loop reporter; higher = weaker reporter binding
Conditions: Eterna round: R107; input ligand: theophylline 20 uM
Procedure: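 RNA-MaP round R107: designed RNA switches with theophylline, tryptophan, arginine or FMN aptamers are transcribed on-chip within common flanks. They are titrated with a labelled K4 kissing-loop RNA reporter in RNA-MaP buffer (100 mM Tris pH 7.5, 80 mM KCl, 4 mM MgCl2), without ligand or with the indicated ligand. Median apparent KD per design.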
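Also: bound reporter read as fluorescence of individual clusters on recovered sequencing chips by microscopy, with normalized cluster intensities fitted with a binding model.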

Sequence | apparent KD of K4 kissing-loop reporter [nM]
AAGUGAUGUUGUAGUGAUGUUGUGAUGUUGCAGGAUAUAUAGUGAUGUAGAAGGGUAUGUGCAGUGUUGUUGUUUGAGUGUUCAU [dttyumullin] | 74.7
CGAGCGGAGUGAUGUUCCGUGCCAGCAGAUACCAGAUUGAAAGAGAUCCCUUGGCAGCUGCGUCACACCCUUACGUGAUAGGACC [theeternabot_sameState_KL_Theo_A_32] | 275
AUUAAUUUCAGAGGAUAUCGUAAUUUUAUUUAAUUUAUUCAUUUGUGCAGUGAUGUUGCUAAUAUUCGAGAAGGCUGAUUUAUAA [whbob_Ex_FMNB__2th223] | 171
UAUUGCCACAGAGUGAUGUUCUGGCCGGAUACCAGCAUGCAAUUAUGCCCUUGGCAGCCGGAUGCGCGUCCAGCCACCGGGCCUG [theeternabot_exclusion_KL_Theo_A_29] | 1280
GGGAGUAGUGCGGCCGCCACUGAGAAAGAAGAAGAAUAUAGUGAUGUUAUAUAGGAAUUAAAGAACAGGACCGGGCAUUAGAUUU [SSTRyptB.O] | 163
CAUAGGAAACUAUGUUCCUCUCUUACUGAAGGAGCGCGUGAAAACGCAGGUAGGUCGCAGGAUUUGAGAGUGAUGUUCUCAUUAA [Ex Arginine A K4 15] | 278
UGAUAGGACAGAAGGAGCGGUAGUGAUGUUACCAAAAGGCUAAGGUGUCAAAAGACACCCUACCAGGUAGGUCGCUGUCCUAUCU | 121
UGUACCGAGUCAGGAUAUGGCGUCGAAAGACGAAUCGUAGUGAUGUUACGGAUCUGCGAAAGCAGUCCAGAAGGGACUUGGUACU [FmnBS 26 G37+C49] | 155
ACUAGAAAACCAGUGAUGUUGGCCUGGGAUACCAGCUUCUAUUAUAGCCCUUGGCAGCCCUUUAGUACAAGUGACCUUGCGACCG [theeternabot_sameState_KL_Theo_A_9] | 217
UCUAAGGUCGAACCGGUAUGAUCACCGGAUACCAGAGGCGAAAGCCUCCCUUGGCAGCCGAGUGUAGUGAUGUUACACGGGUUCU | 310
AUUGCACCUGCGGCCGCCACUCACUCCGGGCUGCUGGCCAGUGAUGUUGGUACGGCUGCCGGUUAGAGGACCGGGCAGGAGCUAA [Esage] | 106

Same assay, conditions: Eterna round: R107; input ligand: tryptophan 2.4 mM

Sequence | apparent KD of K4 kissing-loop reporter [nM]
GGAUAGGAUAGAGGAUAUGGACUAGGCAAGAAUAACUUGUCUAGUAAAUCCAUGAGGAGUGAUGUUCCAGAAGGCUGUCCUAUCG [MatMod 3 - Jieux - Exclusion - FMN B] | 185
AAAUAAUAAAUGCAGCCAGUGAUGUUGGAAGGAGCGUGCGAAAGCACAGGUAGGUCGCCAACCAAAGCUGGAAACAGCAACUGCA [#SwitchBubble 3 #K4Early] | 99.1
ACAGAUUGAUUGAUUCACUUUGUAGCUGCGAAGGAUAUUAAGACGCUAAGAAGGUCGCUUAAGGGUAGUGAUGUUACCUUUUGAG [theeternabot_sameState_KL_FMN_A_27] | 51.4
UUGGAAAUCAGAAGGAGCGUCUAAAAUAAGAGAACCAGUGAUGUUGGUUUUAUUUAAUGAAGACAGGUAGGUCGCUGAAUUUUUA [Same State Arginie B GF 19] | 94.9
CUCCAACUUGAUGAUACCAGAGAGGAGGAAGUGAUGUUGACUCCGGCUACAUACUGGCGACUCCCUUGGCAGCAUUACGUCAUCC [theeternabot_sameState_KL_Theo_B_3] | 353
AGGCACGAGCAAGGAUAUUGAGUAGAGUGAUGUUCUGCCUAAGUUGGCUCGAAAGAGCCUUCUUAGCGAGAAGGUGCUCGUGCCU [#2 Same State - FMN A Attempt #26 (HarryS)] | 763
CCUUCUCUUGAUAGUGAUGUUGUCAAGGGCAAGGAUAUCAUCUUAAUGAGAAGGUGUCCUUGAUAACAUGGAGGUCUGAAACAGA [Omei KL FMN A Exc C v7] | 375
CGUUCUUCUGUCGAUACCAGCUUCAGUUGGCGGCCAGUGAUGUUGGUAUCGCCGAUGCCAAGCCCUUGGCAGCGACAUGAGACCC [Onrire] | 168
AAAAUAAAUCAGUGAUGUUGGUAUCCGGAUACCAGCGAUAAUCAUCGCCCUUGGCAGCCGCGGACGUACAAAAUAAGUACGUCCU [MatMod 15 - Jieux - Same State - Theophylline A] | 131
GACUGGUUAACGAGUGAUGUUCGAUGGGAAGGAGCGCGCAGAAGUGCAGGUAGGUCGCCCUAUAACCAGGAAAUGGCUGGAUUAU [3.)] | 145
GGUUUAUAGGAGGAUACCAGUACGAAUAAAGUACAUUAAUAGUAGAGUGAUGUUCUAAAGUACCCUUGGCAGCUUAGAUUAAGUU [ExTheophylB.H] | 77.9
AAAGUUGCAAGUGAUACCAGACGAGUGAAGGGAAGUAAUUAAUUAGGAGUGAUGUUCCGCGUCCCUUGGCAGCACUUUGUAAUUU [Exclusion Theophylline B GF 25] | 115
UGAUACCAGACGGCCGCCACUAGGACCGGGAGUGAUGUUCCAAAAUUAAAAUACUCGGCCGCCACUAGGACCGGGUCUGGUAUCU [TrypBX 25 #DoubleAptamer #SwitchBubble] | 75.4
AUUUAUUCGUACUACUAGUGAUGUUAGUAACGAGGACCGGUACGGCCGCCACUCGAUUUGGCGAUUUUGUAUUUUUUAUUCUAUA [JR_SSTryptoA_Sub011] | 192
GCCGUACGCAUGGAUACCAGUCUUUCGCGACUGGACAUGGAGUGAUGUUUCGUGAUGCUAGACCCUUGGCAGCCAUGCGUACGGC | 201
GAAUAAUAACAUGAGUGAUGUUCAUGUAAACGAGGACCGGUACGGCCGCCACUCGUUUCUCAUGUAAGCCGUACCAAUAACAAUA [KL-XTryp-A5 #analogue] | 237
UUCAUCGUGGUUCACGGGUGGUAUGAAACGCGAGGACCGGUACGGCCGCCACUCGGUUCCGCUUGUUGAGUGAUGUUCAAUAUUU | 257
AGGUCCGAGCCCGGAAGGGCUCGGACCUGUUAGGAUAUGACGUGAUUCAGAAGGGAUGGGUGGAGUGAUGUUCCACCCGAGAGGG [#2 Same State - FMN A Attempt #20 (HarryS)] | 109
UUUAUUAAGACGGCCGCCACUGAAUUAGAGUGAUGUUCUAAAAUUACUAAAUUAAAUUUAUUCAACAGGACCGGGUCAAUUAUUA [JR_SSTryptoB_Sub010] | 513
GGCAGUGAUGUUGCCUAAGCAACGCAUGCGGAGGAUAUUCGUUCGGGAAGAAGGCCGCAGCGUUCUCUCGCGAGUGAUGUUCGCA [Same State FMN A GF 22] | 147
GGCCACGGGCGAGGAUAUGGGCAUGAUUCAUCCUGGAGUGAUGUUCCAGGUCCUACGUUUCUAGCACCAGAAGGCGUUUGUUGCU [Enistein] | 165
AAACAUCACUGGGAGUGAUGUUCUCAGUGACGAGGACCGGUACGGCCGCCACUCGCGAGAGAUAUAAAUAAGUAAUGACAUCAUU [Excl Tryptophan A V1] | 423

Sequence | apparent KD of K4 kissing-loop reporter [nM]
AUGUAUGAAUUAGGAUAUCGUGAGCUUUGCAUAUAUAUGAUAAAUGGAUAUGUCGUAGUGAUGUUACGAGAAGGAGUGUGGAGUA [KL-XFMN-B3] | 37.4
GCCAGUGAUGUUGGCGAACCAACGCAUGCAGAGGAUAUUCGUUCUGGAAGAAGGCUGCAGCGUUAUCAAACGCAGUGAUGUUGCG [Same State FMN A GF 26] | 129
AGCGUCUGAAGAGGAUAUGACCAGUGAUGUUGGUUACUACCUCAAAUUAGUGUCGCGCCAAAAUCGUCAGAAGGCUUCGGCGCGC [Ussoes] | 92.9
UGGAUAUAGUGAUGUUAUAUAGAGAUGGAUACCAGCGAAGAGAAUUGCCCUUGGCAGCCGAAAGCAGUAUCAUUAGAGAAGAAUG [#19 K4 Theophylline A Exclusion] | 255
GCAGACACGCAGUGAUGUUGCGAAACGGAAGGAGCGCGUGAAAACGCAGGUAGGUCGCCGACACAUUAAUUAUAAUUUUGUUUGC [Arginine A K4 15] | 200
ACUACGAAGACGGCCGCCACUGAUAUUCGUAGAUCCAUCAUUGCAUGAGUGAUGUUCAUGUAUAUCAGGACCGGGUCAAGAUGGU [KL-XTryp-B18 #analogue] | 213
CUGCCGUGCCAUGGGCCAGUGAUGUUGGAACGAGGACCGGUACGGCCGCCACUCGCUUAGCGUCAAAGGCGUCCCGAAUAGAAAG [theeternabot_exclusion_KL_Trp_A_14] | 374
CGCAGUGAUGUUGCGAAUAUAAUAACGGAAGGAGCGCGUGAAAACGCAGGUAGGUCGCCGUUUGGUAUGAUGGAAACAUCGUACC [Arginine A K4 11] | 123
UGCACGGGCUCGGCCGCCACUCCCGCGGGUCGAAAGGUCCGCUACUGAGUGAUGUUCGGUUGGAGGAGGACCGGGAGCCCGUGCA [#2 Exclusion - Tryptophan B Attempt #24 (HarryS)] | 69.2
AAAUAGAUCAGUCAUCCAGUGAUGUUGGAAGGAGCGUGCGAAAGCACAGGUAGGUCGCCAAAAUAAAAGUGGCUGAUCAAAAUAA | 302
AAGUGAUGUUGUAGUGAUGUUGUGAUGUUGCAGGAUAUAUAGUGAUGUAGAAGGGUAUGUGCAGUGUUGUUGUUUGAGUGUUCAU [dttyumullin] | 68.4
CGAGCGGAGUGAUGUUCCGUGCCAGCAGAUACCAGAUUGAAAGAGAUCCCUUGGCAGCUGCGUCACACCCUUACGUGAUAGGACC [theeternabot_sameState_KL_Theo_A_32] | 165
AUUAAUUUCAGAGGAUAUCGUAAUUUUAUUUAAUUUAUUCAUUUGUGCAGUGAUGUUGCUAAUAUUCGAGAAGGCUGAUUUAUAA [whbob_Ex_FMNB__2th223] | 65
UAUUGCCACAGAGUGAUGUUCUGGCCGGAUACCAGCAUGCAAUUAUGCCCUUGGCAGCCGGAUGCGCGUCCAGCCACCGGGCCUG [theeternabot_exclusion_KL_Theo_A_29] | 1140
GGGAGUAGUGCGGCCGCCACUGAGAAAGAAGAAGAAUAUAGUGAUGUUAUAUAGGAAUUAAAGAACAGGACCGGGCAUUAGAUUU [SSTRyptB.O] | 143
CAUAGGAAACUAUGUUCCUCUCUUACUGAAGGAGCGCGUGAAAACGCAGGUAGGUCGCAGGAUUUGAGAGUGAUGUUCUCAUUAA [Ex Arginine A K4 15] | 171
UGAUAGGACAGAAGGAGCGGUAGUGAUGUUACCAAAAGGCUAAGGUGUCAAAAGACACCCUACCAGGUAGGUCGCUGUCCUAUCU | 103
UGUACCGAGUCAGGAUAUGGCGUCGAAAGACGAAUCGUAGUGAUGUUACGGAUCUGCGAAAGCAGUCCAGAAGGGACUUGGUACU [FmnBS 26 G37+C49] | 182
ACUAGAAAACCAGUGAUGUUGGCCUGGGAUACCAGCUUCUAUUAUAGCCCUUGGCAGCCCUUUAGUACAAGUGACCUUGCGACCG [theeternabot_sameState_KL_Theo_A_9] | 277
UCUAAGGUCGAACCGGUAUGAUCACCGGAUACCAGAGGCGAAAGCCUCCCUUGGCAGCCGAGUGUAGUGAUGUUACACGGGUUCU | 166
AUUGCACCUGCGGCCGCCACUCACUCCGGGCUGCUGGCCAGUGAUGUUGGUACGGCUGCCGGUUAGAGGACCGGGCAGGAGCUAA [Esage] | 91.3
